The text below walks through data of article PMC8910529.

Series [1] concerns the target His598 (UniProt position 598, TSCGCHEAIMA). The series is described as follows: kinetics. As to conditions: 20 mM PBS; Ni-reconstituted protein (Nid site occupied, labile Nip removed with phenanthroline), turning over superoxide.
Series [2] deals with His598 (UniProt position 598, TYCGCHEAIMA). The series is described as follows: kinetics. To be noted: 20 mM PBS; Ni-reconstituted protein (Nid site occupied, labile Nip removed with phenanthroline), turning over superoxide.

For the substance “Acetyl-coenzyme A synthase, truncated C-terminal fragment ACS-alpha15, EFG-F598H variant (Moorella thermoacetica; F598H;S594_C595insEFG)”, the pKa (in general, the pH at which an ionisable group is half protonated) in series [1] is given as 6.09.

Regarding “Acetyl-coenzyme A synthase, truncated C-terminal fragment ACS-alpha15, YGP-F598H variant (Moorella thermoacetica; S594Y;Y594_C595insGP;F598H)”, the pKa in series [2] worked out at 5.87.
